Test system: Escherichia coli TOP10
Assay: shrunken log2 fold change of peptide-encoding DNA abundance (4.5 h post-induction vs induction); higher = less antimicrobial activity (less host growth inhibition)
Details: time post-induction: 4.5 h; library: site-saturation at positions 5, 18, 19, 20
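Further: peptides expressed intracellularly from a pBAD plasmid library in pooled LB shake-flask culture, induced with 0.3% L-arabinose, DNA abundance read by NGS, three biological replicates, DESeq2 with apeglm shrinkage.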

## RRIRMRPPRLPRPRPRPYPFPRP
  shrunken log2 fold change: -0.0613

## RRIRNRPPRLPRPRPRPQSFPRP
  shrunken log2 fold change: -0.0341

## RRIRVRPPRLPRPRPRPGRRPRP
  shrunken log2 fold change: 0.236

## RRIRQRPPRLPRPRPRPPMFPRP
  shrunken log2 fold change: -0.325

## RRIRIRPPRLPRPRPRPGNNPRP
  shrunken log2 fold change: -0.00577

## RRIRFRPPRLPRPRPRPLSGPRP
  shrunken log2 fold change: -0.233

## RRIRERPPRLPRPRPRPGHWPRP
  shrunken log2 fold change: 0.0159

## RRIRTRPPRLPRPRPRPHSKPRP
  shrunken log2 fold change: -0.2

## RRIRQRPPRLPRPRPRPEQEPRP
  shrunken log2 fold change: -0.0311

## RRIRFRPPRLPRPRPRPQGMPRP
  shrunken log2 fold change: -0.0535

## RRIRRRPPRLPRPRPRPMPFPRP
  shrunken log2 fold change: -0.0201

## RRIRNRPPRLPRPRPRPINGPRP
  shrunken log2 fold change: -0.262

## RRIRKRPPRLPRPRPRPPWVPRP
  shrunken log2 fold change: 0.221

## RRIRPRPPRLPRPRPRPHLNPRP
  shrunken log2 fold change: -0.517

## RRIRIRPPRLPRPRPRPEWKPRP
  shrunken log2 fold change: 0.0442

## RRIRARPPRLPRPRPRPGVQPRP
  shrunken log2 fold change: 0.0878

## RRIRKRPPRLPRPRPRPSDAPRP
  shrunken log2 fold change: -0.0187

## RRIRGRPPRLPRPRPRPTYAPRP
  shrunken log2 fold change: 0.436

## RRIRPRPPRLPRPRPRPLMEPRP
  shrunken log2 fold change: 0.0162

## RRIRGRPPRLPRPRPRPGPAPRP
  shrunken log2 fold change: 1.02

## RRIRVRPPRLPRPRPRPGCCPRP
  shrunken log2 fold change: 0.385

## RRIRDRPPRLPRPRPRPCDLPRP
  shrunken log2 fold change: -0.0487

## RRIRDRPPRLPRPRPRPSTRPRP
  shrunken log2 fold change: 0.152

## RRIRTRPPRLPRPRPRPQSEPRP
  shrunken log2 fold change: -0.141

## RRIRQRPPRLPRPRPRPYSKPRP
  shrunken log2 fold change: -0.119

## RRIRGRPPRLPRPRPRPELTPRP
  shrunken log2 fold change: 2.02

## RRIRERPPRLPRPRPRPTFSPRP
  shrunken log2 fold change: -0.216

## RRIRMRPPRLPRPRPRPTLGPRP
  shrunken log2 fold change: 0.685

## RRIRSRPPRLPRPRPRPVLHPRP
  shrunken log2 fold change: -0.201

## RRIRFRPPRLPRPRPRPALSPRP
  shrunken log2 fold change: 0.319

## RRIRMRPPRLPRPRPRPHGNPRP
  shrunken log2 fold change: -0.184

## RRIRWRPPRLPRPRPRPGEVPRP
  shrunken log2 fold change: -0.0252

## RRIRSRPPRLPRPRPRPICEPRP
  shrunken log2 fold change: 0.0675

## RRIRARPPRLPRPRPRPNIAPRP
  shrunken log2 fold change: 0.464

## RRIRDRPPRLPRPRPRPFGSPRP
  shrunken log2 fold change: 0.0468

## RRIRARPPRLPRPRPRPRQRPRP
  shrunken log2 fold change: 1.13

## RRIRIRPPRLPRPRPRPQMYPRP
  shrunken log2 fold change: -0.211

## RRIRPRPPRLPRPRPRPTSNPRP
  shrunken log2 fold change: -0.123

## RRIRWRPPRLPRPRPRPGGSPRP
  shrunken log2 fold change: 0.341

## RRIRARPPRLPRPRPRPGEPPRP
  shrunken log2 fold change: 0.601

## RRIRKRPPRLPRPRPRPIVIPRP
  shrunken log2 fold change: -0.0175

## RRIRGRPPRLPRPRPRPWTPPRP
  shrunken log2 fold change: 0.75

## RRIRLRPPRLPRPRPRPFCMPRP
  shrunken log2 fold change: -0.623

## RRIRIRPPRLPRPRPRPWIYPRP
  shrunken log2 fold change: -0.126

## RRIRSRPPRLPRPRPRPNVGPRP
  shrunken log2 fold change: -0.0139

## RRIRVRPPRLPRPRPRPWGCPRP
  shrunken log2 fold change: 0.076

## RRIRKRPPRLPRPRPRPDCSPRP
  shrunken log2 fold change: -0.0754

## RRIRPRPPRLPRPRPRPIRCPRP
  shrunken log2 fold change: 0.125

## RRIRTRPPRLPRPRPRPCWVPRP
  shrunken log2 fold change: -0.42

## RRIRQRPPRLPRPRPRPFSEPRP
  shrunken log2 fold change: -0.477

## RRIRPRPPRLPRPRPRPEYYPRP
  shrunken log2 fold change: -0.335

## RRIRWRPPRLPRPRPRPWNIPRP
  shrunken log2 fold change: -0.0879

## RRIRARPPRLPRPRPRPCTNPRP
  shrunken log2 fold change: 0.109

## RRIRVRPPRLPRPRPRPQHDPRP
  shrunken log2 fold change: -0.0871

## RRIRWRPPRLPRPRPRPWFAPRP
  shrunken log2 fold change: 0.135

## RRIRGRPPRLPRPRPRPAILPRP
  shrunken log2 fold change: -0.0316

## RRIRLRPPRLPRPRPRPFSAPRP
  shrunken log2 fold change: -0.177

## RRIRCRPPRLPRPRPRPGDQPRP
  shrunken log2 fold change: 0.256

## RRIRDRPPRLPRPRPRPYRPPRP
  shrunken log2 fold change: -0.00509

## RRIRLRPPRLPRPRPRPKDDPRP
  shrunken log2 fold change: -0.0117

## RRIRYRPPRLPRPRPRPWWIPRP
  shrunken log2 fold change: -0.00327

## RRIRCRPPRLPRPRPRPCSKPRP
  shrunken log2 fold change: -0.0735

## RRIRVRPPRLPRPRPRPPMWPRP
  shrunken log2 fold change: 0.303

## RRIRSRPPRLPRPRPRPVCRPRP
  shrunken log2 fold change: 0.199

## RRIRWRPPRLPRPRPRPGSRPRP
  shrunken log2 fold change: 0.244

## RRIRRRPPRLPRPRPRPLVRPRP
  shrunken log2 fold change: 0.033

## RRIRERPPRLPRPRPRPAPIPRP
  shrunken log2 fold change: 0.0258

## RRIRKRPPRLPRPRPRPYDQPRP
  shrunken log2 fold change: 0.0359

## RRIRKRPPRLPRPRPRPSVMPRP
  shrunken log2 fold change: 0.163

## RRIRMRPPRLPRPRPRPKMFPRP
  shrunken log2 fold change: 0.0019

## RRIRFRPPRLPRPRPRPIKFPRP
  shrunken log2 fold change: -0.587

## RRIRNRPPRLPRPRPRPFAPPRP
  shrunken log2 fold change: -0.0816

## RRIRERPPRLPRPRPRPINQPRP
  shrunken log2 fold change: -0.734

## RRIRLRPPRLPRPRPRPLTIPRP
  shrunken log2 fold change: -0.0053

## RRIRFRPPRLPRPRPRPVVPPRP
  shrunken log2 fold change: -0.196

## RRIRARPPRLPRPRPRPTWVPRP
  shrunken log2 fold change: 0.225

## RRIRPRPPRLPRPRPRPNAFPRP
  shrunken log2 fold change: -0.0225

## RRIRMRPPRLPRPRPRPIEMPRP
  shrunken log2 fold change: -0.0608

## RRIRIRPPRLPRPRPRPGTRPRP
  shrunken log2 fold change: 0.0641

## RRIRRRPPRLPRPRPRPDCDPRP
  shrunken log2 fold change: 0.222

## RRIRFRPPRLPRPRPRPDVSPRP
  shrunken log2 fold change: 0.0432

## RRIRQRPPRLPRPRPRPEDSPRP
  shrunken log2 fold change: -0.0908

## RRIRKRPPRLPRPRPRPIRYPRP
  shrunken log2 fold change: -0.118

## RRIRERPPRLPRPRPRPPAEPRP
  shrunken log2 fold change: 0.758

## RRIRGRPPRLPRPRPRPIKLPRP
  shrunken log2 fold change: 0.125

## RRIRYRPPRLPRPRPRPWFGPRP
  shrunken log2 fold change: -0.0933

## RRIRDRPPRLPRPRPRPPVTPRP
  shrunken log2 fold change: -0.0696

## RRIRNRPPRLPRPRPRPNPMPRP
  shrunken log2 fold change: -0.0603

## RRIRRRPPRLPRPRPRPPDIPRP
  shrunken log2 fold change: -0.0254

## RRIRGRPPRLPRPRPRPKDRPRP
  shrunken log2 fold change: 0.89

## RRIRPRPPRLPRPRPRPELYPRP
  shrunken log2 fold change: 0.0891

From the supplement of paper PMC9112550, “Optimization of the antimicrobial peptide Bac7 by deep mutational scanning” (BMC Biology, 2022)
